In article PMC8177701 (Science Advances, 2021):

Molecular target: T1, RsmA (E. coli, UniProt P06992 1-273)
T1 sequence (looked up): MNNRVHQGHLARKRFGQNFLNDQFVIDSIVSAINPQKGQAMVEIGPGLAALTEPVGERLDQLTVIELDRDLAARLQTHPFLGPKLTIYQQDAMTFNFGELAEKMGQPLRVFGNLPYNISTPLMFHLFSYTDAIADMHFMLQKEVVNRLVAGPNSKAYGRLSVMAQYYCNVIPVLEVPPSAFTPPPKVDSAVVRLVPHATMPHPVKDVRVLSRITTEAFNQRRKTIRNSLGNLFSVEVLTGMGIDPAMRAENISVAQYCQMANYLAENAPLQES
Test: NMR titration

B1: RimP (natural protein)
chain: not shown
Q: Which Ka does the source give for B1 here?
A: Its Ka is under 10000 M⁻¹.
